B1: MACHα1 (C360S): MACHα1 mutant in which the catalytic cysteine Cys360 is replaced by Ser (protein)
chain: MDFSRNLYDIGEQLDSEDLASLKFLSLDYIPQRKQEPIKDALMLFQRLQEKRMLEESNLSFLKELLFRINRLDLLITYLNTRKEEMERELQTPGRAQISAYRVMLYQISEEVSRSELRSFKFLLQEEISKCKLDDDMNLLDIFIEMEKRVILGEGKLDILKRVCAQINKSLLKIINDYEEFSKERSSSLEGSPDEFSNGEELCGVMTISDSPREQDSESQTLDKVYQMKSKPRGYCLIINNHNFAKAREKVPKLHSIRDRNGTHLDAGALTTTFEELHFEIKPHDDCTVEQIYEILKIYQLMDHSNMDCFICCILSHGDKGIIYGTDGQEAPIYELTSQFTGLKCPSLAGKPKVFFIQASQGDNYQKGIPVETDSEEQPYLEMDLSSPQTRYIPDEADFLLGMATVNNCVSYRNPAEGTWYIQSLCQSLRERCPRGDDILTILTEVNYEVSNKDDKKNMGKQMPQPTFTLRKKLVFPSD
B2: MACHβ1: MACH isoform, cDNA SEQ ID NO: 4, amino acid SEQ ID NO: 5; lacks the CED3/ICE homology region (protein)
chain: MDFSRNLYDIGEQLDSEDLASLKFLSLDYIPQRKQEPIKDALMLFQRLQEKRMLEESNLSFLKELLFRINRLDLLITYLNTRKEEMERELQTPGRAQISAYRVMLYQISEEVSRSELRSFKFLLQEEISKCKLDDDMNLLDIFIEMEKRVILGEGKLDILKRVCAQINKSLLKIINDYEEFSKERSSSLEGSPDEFSNDFGQSLPNEKQTSGILSDHQQSQFCKSTGESAQTSQH

How the values were obtained:
MACHβ1 = biological target: T1, MACHβ1 (Homo sapiens, UniProt Q14790); assay: Two-hybrid β-galactosidase filter assay (FIG. 5), binding to MACHβ1; settings: two hybrid test
T1 construct: a construct encoding only the ORF-B (MACH B) region; expressed in transfected cells; host or cells: SFY526 yeast
Protocol: The yeast two-hybrid test was further applied to evaluate the specificity of binding of MACH to MORT-1, in particular, to define the region in MORT-1 to which MACH binds, as well as to determine which of the MACH ORFs interacts with MORT-1, the procedures being as set forth herein above in Examples 1 and 2. Briefly, various MORT-1 and MACH constructs were prepared for testing the interaction of the proteins encoded by the Gal4 DNA-binding domain and activation domain constructs within transfected SFY526 yeast cells as assessed by the β-galactosidase expression filter assay. The DNA-binding domain constructs were prepared in pGBT9 vectors and the activation domain constructs were prepared in pGAD-GM vectors. For the activation domain constructs, the full-length MACH cDNA was used (MACH), as was a construct encoding only the ORF-B (MACH B) region. Control activation domain constructs were those containing the full-length MORT-1 coding sequence (MORT 1, positive control) and those having no inserts, i.e., “empty” vectors (pGAD-GM). For the DNA-binding domain constructs, the full-length MORT-1 cDNA was used (MORT 1), as were constructs encoding only the MORT-1 […] (MORT-1DD aa 130-245). […] In the assay, the development of color was determined, where the greater the color development, the greater the interaction between the constructs encoded by the DNA-binding domain and activation domain; Color development was depicted by symbols, where “+++” and “+” indicate the development of a strong color within 30 and 90 min. of the assay, respectively, and “−−−” indicates the lack of development of color within 24 hrs. of the assay. […]
In FIG. 5, there is shown the results of the interaction of MORT-1 and MACH within transfected yeast cells. […] Their interaction was assessed by a β-galactosidase expression filter assay as described in Boldin et al (1995b). […]

yeasts = assay: Cytotoxic effect on transfected yeasts (yield of colonies); format: cell-based, yeast; settings: decrease in the yield of colonies; activation domain vector
Excerpt: To find out if MACHα1 can bind to MORT1, as does MACHβ1, the interaction of the proteins within transfected yeasts was first examined. […] This effect was manifested in a marked decrease in the yield of colonies in yeasts that expressed the protein in the activation domain (AD) vector (whose expression level is higher than that of the DNA binding domain (DBD) vector). On the other hand, […] in which the catalytic cysteine residue, Cys360, was replaced with Ser (MACHα1 (C360S)) was not cytotoxic to either mammalian cells (see below), or yeast. Like MACHβ1, MACHα1 (C360S) bound in tranfected yeast to MORT-1 and also to itself. It also bound to MACHβ1. […] The intensity of the lacZ-product color varied, however, among the yeast colonies; in yeasts tranfected with MACHα1 in both the AD and the DBD vectors no color product was observed, probably because of the cytotoxic effect of the wild-type MACHα1.

Molecule | binding to MACHβ1 in transfected yeast (MACHβ1) | cytotoxic effect on yeasts (yeasts)
MACHα1: MACH isoform, cDNA SEQ ID NO: 14, amino acid SEQ ID NO: 7; contains CED3/ICE homology region | scored clearly positive | significant cytotoxic effect
B1 | bound | not cytotoxic
B2 | self-associated | –
